This is an account of results in patent US20210230280A1 (EXIRIS S R L, published 2021).

Test [1] concerns the target T1, human chimeric receptor FGFR4-Fc (R&D Systems) (human, UniProt P22455 22-369).
T1 construct: extracellular domain; bought; also called hFGFR4-Fc; not shown: human IgG Fc
T1 sequence (looked up): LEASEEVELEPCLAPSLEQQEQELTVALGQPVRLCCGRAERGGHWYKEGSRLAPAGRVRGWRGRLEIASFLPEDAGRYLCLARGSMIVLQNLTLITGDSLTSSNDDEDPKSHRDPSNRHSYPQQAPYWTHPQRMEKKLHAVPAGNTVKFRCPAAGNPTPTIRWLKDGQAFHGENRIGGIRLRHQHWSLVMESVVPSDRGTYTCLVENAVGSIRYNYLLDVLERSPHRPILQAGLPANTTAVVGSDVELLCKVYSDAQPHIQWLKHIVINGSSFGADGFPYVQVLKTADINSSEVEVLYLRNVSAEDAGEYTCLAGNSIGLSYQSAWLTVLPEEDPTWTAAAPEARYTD
Nature of the test: competition ELISA, FGF19 binding to FGFR4-Fc. In general terms: An ELISA detects its analyte on a solid surface through an enzyme-linked reagent.

The target in test [2] is T2, murine FGFR4 (mouse, UniProt Q03142 17-799).
T2 construct: whole, on cells; full-length, on transfected BOSC23 cells; also called murine receptor; murine FL FGFR4
T2 sequence (looked up): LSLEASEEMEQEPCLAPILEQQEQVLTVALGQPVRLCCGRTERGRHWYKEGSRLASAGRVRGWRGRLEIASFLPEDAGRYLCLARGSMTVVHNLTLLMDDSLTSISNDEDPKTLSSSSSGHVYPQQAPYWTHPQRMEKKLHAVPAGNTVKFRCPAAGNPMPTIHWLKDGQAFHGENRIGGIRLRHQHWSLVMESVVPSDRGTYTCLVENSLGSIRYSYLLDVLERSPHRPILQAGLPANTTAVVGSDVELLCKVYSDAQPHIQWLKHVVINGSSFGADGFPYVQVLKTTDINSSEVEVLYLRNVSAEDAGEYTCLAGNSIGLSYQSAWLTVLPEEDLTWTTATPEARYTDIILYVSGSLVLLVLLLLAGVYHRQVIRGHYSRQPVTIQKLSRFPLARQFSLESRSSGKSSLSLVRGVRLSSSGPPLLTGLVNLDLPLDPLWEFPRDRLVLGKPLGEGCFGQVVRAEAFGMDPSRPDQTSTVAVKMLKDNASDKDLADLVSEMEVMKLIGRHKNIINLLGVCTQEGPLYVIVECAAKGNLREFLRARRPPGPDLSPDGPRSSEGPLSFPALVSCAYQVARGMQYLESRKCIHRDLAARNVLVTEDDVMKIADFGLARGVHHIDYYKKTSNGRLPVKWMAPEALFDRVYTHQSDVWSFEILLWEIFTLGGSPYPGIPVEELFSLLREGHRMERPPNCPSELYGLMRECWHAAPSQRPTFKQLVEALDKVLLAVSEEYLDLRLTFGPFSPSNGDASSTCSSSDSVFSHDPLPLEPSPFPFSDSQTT
Description: told with the epitope alignment.

The target in test [3] is T3, human chimeric receptor FGFR3-Fc (R&D Systems) (human, UniProt P22607 23-375).
T3 construct: extracellular domain; not shown: human Fc
T3 sequence (looked up): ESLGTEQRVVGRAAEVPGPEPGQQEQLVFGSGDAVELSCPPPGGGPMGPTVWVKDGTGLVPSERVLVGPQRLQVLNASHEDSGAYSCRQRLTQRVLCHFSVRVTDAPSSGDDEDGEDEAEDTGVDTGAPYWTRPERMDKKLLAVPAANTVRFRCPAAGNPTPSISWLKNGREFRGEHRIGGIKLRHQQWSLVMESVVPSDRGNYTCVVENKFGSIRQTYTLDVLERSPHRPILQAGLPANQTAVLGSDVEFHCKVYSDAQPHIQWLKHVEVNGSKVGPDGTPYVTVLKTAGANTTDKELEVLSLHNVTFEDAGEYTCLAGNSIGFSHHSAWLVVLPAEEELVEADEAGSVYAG
Description: solid phase receptor binding assay.

Residue numbers refer to the chain shown, from its start. “And” between values parts separate entries of the source, which are not always exact repeats. Identical values can stand only once.

B1: Hu3B6a (antibody, human IgG1, V domains shown)
VH: EVQLVESGGGLVQPGGSLRLSCAASGFTFSNYYMSWVRQAPGKGLEWVATINPSGTRTYYPDSVKGRFTISRDNAKNSLYLQMNSLRAEDTAVYYCARLYNNYAFDYWGQGTLVTVSS
VL: DIQMTQSPSSLSASVGDRVTITCRASESISTLLHWYQQKPGKAPKLLIYGTSNLESGVPSRFSGSGSGTDFTLTISSLQPEDFATYYCQQSWNDPPTFGGGTKVEIK
For the molecule B1, in test [1], the IC50 was 0.13 µg/mL and 0.87 nM.

B2: Hu3B6e (antibody, human IgG1, V domains shown)
VH: B1 VH with T50N
VL: B1 VL with I29V, L33M
As to B2, the IC50 in test [1] was 0.16 µg/mL and 1 nM.

B3: Hu3B6d (antibody, human IgG1, V domains shown)
VH: B1 VH
VL: B1 VL with I29V, L33M
As for B3, in test [1], the IC50 is 0.03 µg/mL and 0.2 nM.

B4: Hu3B6c (antibody, human IgG1, V domains shown)
VH: B1 VH with N74S, N77S
VL: B1 VL
With B4, the IC50 in test [1] was 0.07 µg/mL and 0.47 nM.

B5: Hu3B6f (antibody, human IgG1, V domains shown)
VH: B1 VH with N74S, N77S
VL: B1 VL with I29V, L33M
Regarding B5, the IC50 in test [1] is 0.09 µg/mL and 0.6 nM.

B6: Hu3B6b (antibody, human IgG1, V domains shown)
VH: B1 VH with T50N
VL: B1 VL
With B6, the IC50 in test [1] was 0.4 µg/mL and 2.7 nM.

B7: ch3B6 (antibody, human IgG1, V domains shown)
VH: EVQLVESGGGLVQPGRSLKLSCAASGFTFSNYYMAWVRQAPKKGLEWVATINPSGTRTYYPDSVKGRFTLSRDSAKSSLYLQMNSLKSEDTATFYCARLYNNYAFDYWGQGVMVTVSS
VL: DVQMTQSPALAVSPGERVSISCRASESVSTLMHWYQQKPGQQPKLLIYGTSNLESGVPARFSGSGSGTDFTLNIDPVEADDTATYFCQQSWNDPPTFGGGTKLELK
notes: human-rat chimeric antibody, human IgG1 constant regions and human kappa constant region; also called chimeric 3B6
Consider B7, for which the figures for the binding result in test [2] and in test [3] were “binds” and “no binding (tested: 9 ug/mL)”, respectively.

The IC50 is the concentration that inhibits the measured activity by half.
